Biological target: Type II Hsp40 Sis1 (S. cerevisiae (endogenous in yeast)) (UniProt P25294)
Test: co-IP; yeast cell extracts in Buffer A (150 mM NaCl, 50 mM Hepes pH 7.4, 1 mM EDTA, 0.1% Triton X-100), indicated antisera 1 hour at 4°C, Protein G beads, immunoblotting; extracts with or without Apyrase (Ssa1); WT or Δhsp104 strain (Sis1)

Sequence of UniProt P25294 (P25294 whole entry): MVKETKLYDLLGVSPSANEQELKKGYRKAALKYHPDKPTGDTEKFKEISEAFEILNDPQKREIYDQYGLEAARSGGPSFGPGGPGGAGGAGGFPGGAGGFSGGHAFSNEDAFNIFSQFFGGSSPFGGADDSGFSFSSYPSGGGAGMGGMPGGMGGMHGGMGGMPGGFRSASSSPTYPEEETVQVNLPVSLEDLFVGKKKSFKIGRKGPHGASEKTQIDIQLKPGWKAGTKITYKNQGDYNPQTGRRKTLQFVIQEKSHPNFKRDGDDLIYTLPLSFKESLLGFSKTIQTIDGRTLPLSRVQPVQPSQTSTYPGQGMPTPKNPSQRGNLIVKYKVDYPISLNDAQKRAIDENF

fold change of immunoprecipitable Sis1:slGFP complexes in Δhsp104 against WT: 1.5 fold
Substance: short-lived GFP (slGFP)
